The Km is the substrate concentration at which the rate is half of its maximum. In general, kcat refers to the number of substrate molecules converted per active site and unit of time at saturation. In general, kcat/Km refers to the turnover number divided by the Michaelis constant.

Substrate in this data set: CC(=O)Oc1ccc([N+](=O)[O-])cc1
The experiment in a line: purified protein. The following applies: 30 mM Tris-HCl pH 8.0 (general assay), temperature for the Km not given. It counts as biochemical, Halalkalibacterium halodurans.

B1: AXE-HAS10 (Halalkalibacterium halodurans C-125) (protein)
chain: MPLIDMPLTELKEYMGRNPKPDDFTEYWDRALQEMRKVNPNVELIPSDFQTTYAECFHLYFTGVRGARIHAKYVRPRHTSGTHPAVIHFHGYTMNAGEWTGLLHYAALGYSVLAMDVRGQGGLSEDTGGVKGNTHSGHIIRGLDDNADQLLFRHVFLDTAQLANIVMNLPEVDEERVAVTGWSQGGALAIACAALEPKIKKVAPVYPFLSDYQRVWEMDLAEKAYDELQTYFRRFDPQHRREAEIFTKLGYIDIQHLAPLVKGEVLLAVGLMDTVCPPSTQFAMYNKLTTTKSIELYPDFAHEDLPGHRDRIFQFLSDL
notes: full-length ORF, 319 residues, no signal peptide; pET-28a(+) His6 fusion, 33 extra residues N-terminal and 9 C-terminal; E. coli BL21 (DE3) Rosetta; EC 3.1.1.72, CE7
For B1, the Km worked out at 96 µM, the kcat was found to be 63.1 s⁻¹ and the kcat/Km stood at 657000 M⁻¹ s⁻¹.
